Values quoted from earlier work in PMC9101112.

How the values were obtained:
Experiment in all cases: enzyme inhibition
Trp-Val-Tyr-Pro-Trp = target: Trp-Val-Tyr-Pro-Trp
Ile-Val-Tyr-Pro-Trp = target: Ile-Val-Tyr-Pro-Trp
tynorphin = target: tynorphin
valorphin (Bos taurus) = target: valorphin (Bos taurus)
spinorphin (Bos taurus) = target: spinorphin (Bos taurus)

| Ki (Trp-Val-Tyr-Pro-Trp) [µM] | Ki (Ile-Val-Tyr-Pro-Trp) [µM] | Ki (tynorphin) [µM] | Ki (valorphin (Bos taurus)) [µM] | Ki (spinorphin (Bos taurus)) [µM] | Substance |
| --- | --- | --- | --- | --- | --- |
| 0.126 | 0.1 | 2.67 |  |  | DPP III (from UniProt O55096) |
|  |  |  | 0.049 | 2.42 | DPP III (from UniProt Q9NY33) |
